{"source": "patent US6867179B1", "about": "“Methods of inducing hair growth and coloration” (Trustees of Boston University, priority 1994, dated 2005)", "key": {"p75^NTR": {"molecular_target": "T1, p75^NTR (Homo sapiens, UniProt P08138)", "T1 sequence (P08138 29-427)": "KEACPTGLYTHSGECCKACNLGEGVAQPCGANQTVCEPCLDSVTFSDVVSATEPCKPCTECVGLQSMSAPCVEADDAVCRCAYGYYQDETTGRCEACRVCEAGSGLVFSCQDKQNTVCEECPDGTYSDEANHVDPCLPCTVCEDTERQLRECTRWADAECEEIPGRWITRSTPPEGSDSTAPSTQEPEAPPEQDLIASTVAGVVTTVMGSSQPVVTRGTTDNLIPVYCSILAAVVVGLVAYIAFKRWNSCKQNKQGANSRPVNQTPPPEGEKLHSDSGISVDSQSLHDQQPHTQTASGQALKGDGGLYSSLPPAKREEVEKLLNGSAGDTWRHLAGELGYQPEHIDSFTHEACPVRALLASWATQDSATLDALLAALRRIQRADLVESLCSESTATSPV", "details": "lysine 34 replaced by alanine; cited from earlier work"}, "p75": {"test_system": "p75", "test": "Regulation of p75 mRNA in melanocytes by agents that increase cAMP", "format": "cell-based, human", "details": "forskolin 50 μM or IBMX 100 μM, within 24 hours", "procedure": "MC were stimulated with growth factor-containing medium supplemented with forskolin (50 μM) or IBMX (100 μM) that increase cAMP levels. […] To determine if ultraviolet (UV) irradiation that induces cutaneous injury upregulates p75, MC were sham- or UV-irradiated with solar simulated light (30 mJ/cm^2, metered at 285+5 nm). […] Furthermore, 48 hours after irradiation, cAMP levels were >70% decreased in UV- vs sham-irradiated cells."}}}
{"molecule": "mutant NGF: NGF in which lysine (K) at position 34 is replaced by alanine (A)", "values": [{"measurement": "Lowering of affinity for p75NTR relative to NGF", "setting": "p75^NTR", "result": 50, "unit": "%"}]}
{"molecule": "CC(C)Cn1c(=O)n(C)c(=O)c2[nH]cnc21", "note": "[IBMX]", "values": [{"measurement": "p75 mRNA upregulation", "setting": "p75", "result": "substantially inhibited this upregulation"}]}
